Experimental findings from patent publication US20210292422A1 (SURROZEN, published 2021) are described below.

The target of experiment [1] is T1, LRP6E1E2 (UniProt O75581 20-630).
T1 construct: domain: E1E2; also called LRP6 E1E2 domains
T1 sequence (looked up): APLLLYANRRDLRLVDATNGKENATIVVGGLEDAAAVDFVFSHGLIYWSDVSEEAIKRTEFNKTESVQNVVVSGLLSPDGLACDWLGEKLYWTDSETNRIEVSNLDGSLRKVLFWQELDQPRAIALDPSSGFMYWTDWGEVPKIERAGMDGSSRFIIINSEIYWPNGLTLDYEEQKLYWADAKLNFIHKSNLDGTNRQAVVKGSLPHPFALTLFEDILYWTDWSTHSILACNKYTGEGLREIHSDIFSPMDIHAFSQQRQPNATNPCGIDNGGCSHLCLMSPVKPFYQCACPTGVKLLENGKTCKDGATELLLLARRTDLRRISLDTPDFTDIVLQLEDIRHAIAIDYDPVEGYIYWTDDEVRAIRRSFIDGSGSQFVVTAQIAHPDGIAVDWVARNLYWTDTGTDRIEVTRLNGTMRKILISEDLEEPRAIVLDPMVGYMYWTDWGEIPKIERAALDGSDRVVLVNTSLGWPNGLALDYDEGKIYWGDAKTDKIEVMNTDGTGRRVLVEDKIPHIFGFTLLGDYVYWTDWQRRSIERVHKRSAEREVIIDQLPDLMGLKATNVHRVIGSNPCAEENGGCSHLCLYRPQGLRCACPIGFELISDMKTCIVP
In words: BLI (Octet), FIG. 11B.

The next experiment addresses T2, FZD5 (UniProt Q13467 28-150, limits assumed).
T2 construct: also called Frizzled 5
T2 sequence (looked up): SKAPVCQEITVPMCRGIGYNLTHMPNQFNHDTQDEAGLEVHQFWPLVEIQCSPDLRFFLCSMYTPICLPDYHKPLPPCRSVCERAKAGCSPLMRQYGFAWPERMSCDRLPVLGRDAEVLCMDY
Briefly: column 'Specificity (Clone name)' of the component table; method not given there.

Experiment [2] concerns the target T1, LRP6E1E2. Briefly: BLI (Octet), FIG. 12E. (BLI is a label-free optical method that tracks binding on a fibre tip over time.)
The target in another experiment is FZD7 (UniProt O75084 44-163). Briefly: column 'Specificity (Clone name)' of the component table; method not given there.

B1: F1:15:L1:Fc (bispecific antibody)
chain: EVQLVESGGGLVQPGGSLRLSCAASGFTFSHYTLSWVRQAPGKGLEWVSVISGDGSYTYYADSVKGRFTISSDNSKNTLYLQMNSLRAEDTAVYYCARNFIKYVFANWGQGTLVTVSSGGGGSGGGGSGGGGSDIELTQPPSVSVAPGQTARISCSGDNIGSFYVHWYQQKPGQAPVLVIYDKSNRPSGIPERFSGSNSGNTATLTISGTQAEDEADYYCQSYANTLSLVFGGGTKLTVLGSGSGGSGSGGSSGGDVKLVESGGGLVKLGGSLRLSCAASGFSFSTSYMSWVRQTPEKRLELVAAINLNGGSTYYSDTVKGRFTISRDNAKNTLYLQMSSLKSEDTAFYYCASELAGYGTPFAYWGQGTLVTVSAGSAASGSSGGSSSGADIVLTQSPATLSVTPGDSVSLSCKASQSISYNLHWYQQKSHESPRLLIKYTSQSISGIPSRFSGSGSGTDFTLTINNVETEDFGMYFCQQSNSWPLTFGAGTKLEVKGSGSGDKTHTCPPCPAPEAAGGPSVFLFPPKPKDTLMISRTPEVTCVVVDVSHEDPEVKFNWYVDGVEVHNAKTKPREEQYNSTYRVVSVLTVLHQDWLNGKEYKCKVSNKALGAPIEKTISKAKGQPREPQVYTLPPSREEMTKNQVSLTCLVKGFYPSDIAVEWESNGQPENNYKTTPPVLDSDGSFFLYSKLTVDKSRWQQGNVFSCSVMHEALHNHYTQKSLSLSPGK
notes: 2:2 tandem scFv-Fc
With B1, the binding result with LRP6E1E2 [1] is listed as “binds”.

B2: F3: antiFZD5, 8 (2919) scFv (scFv)
scFv: EVQLVESGGGLVQPGGSLRLSCAASGFNISYSYIHWVRQAPGKGLEWVASIYSSSGSTSYADSVKGRFTISADTSKNTAYLQMNSLRAEDTAVYYCARGAIDYWGQGTLVTVSSGGGGSGGGGSGGGGSDIQMTQSPSSLSASVGDRVTITCRASQSVSSAVAWYQQKPGKAPKLLIYSASSLYSGVPSRFSGSRSGTDFTLTISSLQPEDFATYYCQQWYSSGHVLITFGQGTKVEIK
In the case of B2, the binding result in the experiment with FZD5 is “binds”.

B3: L1:5:F1:Fc (bispecific antibody)
chain: DVKLVESGGGLVKLGGSLRLSCAASGFSFSTSYMSWVRQTPEKRLELVAAINLNGGSTYYSDTVKGRFTISRDNAKNTLYLQMSSLKSEDTAFYYCASELAGYGTPFAYWGQGTLVTVSAGSAASGSSGGSSSGADIVLTQSPATLSVTPGDSVSLSCKASQSISYNLHWYQQKSHESPRLLIKYTSQSISGIPSRFSGSGSGTDFTLTINNVETEDFGMYFCQQSNSWPLTFGAGTKLEVKGSGSGEVQLVESGGGLVQPGGSLRLSCAASGFTFSHYTLSWVRQAPGKGLEWVSVISGDGSYTYYADSVKGRFTISSDNSKNTLYLQMNSLRAEDTAVYYCARNFIKYVFANWGQGTLVTVSSGGGGSGGGGSGGGGSDIELTQPPSVSVAPGQTARISCSGDNIGSFYVHWYQQKPGQAPVLVIYDKSNRPSGIPERFSGSNSGNTATLTISGTQAEDEADYYCQSYANTLSLVFGGGTKLTVLGSGSGDKTHTCPPCPAPEAAGGPSVFLFPPKPKDTLMISRTPEVTCVVVDVSHEDPEVKFNWYVDGVEVHNAKTKPREEQYNSTYRVVSVLTVLHQDWLNGKEYKCKVSNKALGAPIEKTISKAKGQPREPQVYTLPPSREEMTKNQVSLTCLVKGFYPSDIAVEWESNGQPENNYKTTPPVLDSDGSFFLYSKLTVDKSRWQQGNVFSCSVMHEALHNHYTQKSLSLSPGK
In the case of B3, in the experiment with LRP6E1E2 [1], the binding result was “binds”.

B4: L1:5:αGFP:Fc (bispecific antibody)
chain: DVKLVESGGGLVKLGGSLRLSCAASGFSFSTSYMSWVRQTPEKRLELVAAINLNGGSTYYSDTVKGRFTISRDNAKNTLYLQMSSLKSEDTAFYYCASELAGYGTPFAYWGQGTLVTVSAGSAASGSSGGSSSGADIVLTQSPATLSVTPGDSVSLSCKASQSISYNLHWYQQKSHESPRLLIKYTSQSISGIPSRFSGSGSGTDFTLTINNVETEDFGMYFCQQSNSWPLTFGAGTKLEVKGSGSGQVQLVESGGGLVQPGGSLRLSCAASGFTFSRYGMHWVRQAPGKGLEWVSGISSIGSNTYYADSVKGRFTISRDNSKNTLYLQMNSLRAEDTAVYYCARWYKTYIDVWGQGTLVTVSSGGGGSGGGGSGGGGSDIELTQPPSVSVAPGQTARISCSGDNLGKKYVYWYQQKPGQAPVLVIYGDDERPSGIPERFSGSNSGNTATLTISGTQAEDEADYYCASYDSSHILIVFGGGTKLTVLGSGSGDKTHTCPPCPAPEAAGGPSVFLFPPKPKDTLMISRTPEVTCVVVDVSHEDPEVKFNWYVDGVEVHNAKTKPREEQYNSTYRVVSVLTVLHQDWLNGKEYKCKVSNKALGAPIEKTISKAKGQPREPQVYTLPPSREEMTKNQVSLTCLVKGFYPSDIAVEWESNGQPENNYKTTPPVLDSDGSFFLYSKLTVDKSRWQQGNVFSCSVMHEALHNHYTQKSLSLSPGK
notes: 0FZD:2LRP control
In the case of B4, the binding result with LRP6E1E2 [2] was “binds”.

B5: F1: antiFZD1, 2, 7, 5, 8 (18R5) scFv (scFv)
scFv: EVQLVESGGGLVQPGGSLRLSCAASGFTFSHYTLSWVRQAPGKGLEWVSVISGDGSYTYYADSVKGRFTISSDNSKNTLYLQMNSLRAEDTAVYYCARNFIKYVFANWGQGTLVTVSSGGGGSGGGGSGGGGSDIELTQPPSVSVAPGQTARISCSGDNIGSFYVHWYQQKPGQAPVLVIYDKSNRPSGIPERFSGSNSGNTATLTISGTQAEDEADYYCQSYANTLSLVFGGGTKLTVL
B5: the binding result with FZD7 and with FZD5 was “binds” each time.

B6: L1:10:F1:Fc (bispecific antibody)
chain: DVKLVESGGGLVKLGGSLRLSCAASGFSFSTSYMSWVRQTPEKRLELVAAINLNGGSTYYSDTVKGRFTISRDNAKNTLYLQMSSLKSEDTAFYYCASELAGYGTPFAYWGQGTLVTVSAGSAASGSSGGSSSGADIVLTQSPATLSVTPGDSVSLSCKASQSISYNLHWYQQKSHESPRLLIKYTSQSISGIPSRFSGSGSGTDFTLTINNVETEDFGMYFCQQSNSWPLTFGAGTKLEVKGSGSGGSGSGEVQLVESGGGLVQPGGSLRLSCAASGFTFSHYTLSWVRQAPGKGLEWVSVISGDGSYTYYADSVKGRFTISSDNSKNTLYLQMNSLRAEDTAVYYCARNFIKYVFANWGQGTLVTVSSGGGGSGGGGSGGGGSDIELTQPPSVSVAPGQTARISCSGDNIGSFYVHWYQQKPGQAPVLVIYDKSNRPSGIPERFSGSNSGNTATLTISGTQAEDEADYYCQSYANTLSLVFGGGTKLTVLGSGSGDKTHTCPPCPAPEAAGGPSVFLFPPKPKDTLMISRTPEVTCVVVDVSHEDPEVKFNWYVDGVEVHNAKTKPREEQYNSTYRVVSVLTVLHQDWLNGKEYKCKVSNKALGAPIEKTISKAKGQPREPQVYTLPPSREEMTKNQVSLTCLVKGFYPSDIAVEWESNGQPENNYKTTPPVLDSDGSFFLYSKLTVDKSRWQQGNVFSCSVMHEALHNHYTQKSLSLSPGK
notes: 2:2 tandem scFv-Fc
On to B6, for which the binding result with LRP6E1E2 [1] is “binds”.

B7: F2: antiFZD1, 2, 7 (R2H1) scFv (scFv)
scFv: EVQLVESGGGLVQPGGSLRLSCAASGFNISSSYIHWVRQAPGKGLEWVAYIYSSYGSTYYADSVKGRFTISADTSKNTAYLQMNSLRAEDTAVYYCARASWYALDYWGQGTLVTVSSGSAASGSSGGSSSGADIQMTQSPSSLSASVGDRVTITCRASQSVSSAVAWYQQKPGKAPKLLIYSASSLYSGVPSRFSGSRSGTDFTLTISSLQPEDFATYYCQQYWYGVAPITFGQGTKVEIK
Turning to B7, in the experiment with FZD7, the binding result is “binds”.

B8: αGFP:5:L1:Fc (bispecific antibody)
chain: QVQLVESGGGLVQPGGSLRLSCAASGFTFSRYGMHWVRQAPGKGLEWVSGISSIGSNTYYADSVKGRFTISRDNSKNTLYLQMNSLRAEDTAVYYCARWYKTYIDVWGQGTLVTVSSGGGGSGGGGSGGGGSDIELTQPPSVSVAPGQTARISCSGDNLGKKYVYWYQQKPGQAPVLVIYGDDERPSGIPERFSGSNSGNTATLTISGTQAEDEADYYCASYDSSHILIVFGGGTKLTVLGSGSGDVKLVESGGGLVKLGGSLRLSCAASGFSFSTSYMSWVRQTPEKRLELVAAINLNGGSTYYSDTVKGRFTISRDNAKNTLYLQMSSLKSEDTAFYYCASELAGYGTPFAYWGQGTLVTVSAGSAASGSSGGSSSGADIVLTQSPATLSVTPGDSVSLSCKASQSISYNLHWYQQKSHESPRLLIKYTSQSISGIPSRFSGSGSGTDFTLTINNVETEDFGMYFCQQSNSWPLTFGAGTKLEVKGSGSGDKTHTCPPCPAPEAAGGPSVFLFPPKPKDTLMISRTPEVTCVVVDVSHEDPEVKFNWYVDGVEVHNAKTKPREEQYNSTYRVVSVLTVLHQDWLNGKEYKCKVSNKALGAPIEKTISKAKGQPREPQVYTLPPSREEMTKNQVSLTCLVKGFYPSDIAVEWESNGQPENNYKTTPPVLDSDGSFFLYSKLTVDKSRWQQGNVFSCSVMHEALHNHYTQKSLSLSPGK
notes: 0FZD:2LRP control
With B8, the binding result in the experiment with LRP6E1E2 [2] was “binds”.
